The values below come from paper PMC5811048, “Application of the SSB biosensor to study in vitro transcription”.

In data set [1] the target is T1, MDCC-SSB (UniProt P0AGE0 1-178, G27C). The experiment in a line: MDCC fluorescence spectra; excess ssRNA70; 3 mM MgCl2; 50 mM Tris-HCl pH 7.5, 3 mM MgCl2, 100 mM (or 200 mM) NaCl; MDCC titrations 25 C; EMSA room temperature, 20 min. The following applies: protein: recombinant; tags: pET151 vector, His tag (HisTrap purified); MDCC label (at C26, implied); chain copies: 4; single strand. In general terms: In EMSA bound probe runs differently from free probe, usually more slowly.
T1 sequence (P0AGE0 whole entry G27C): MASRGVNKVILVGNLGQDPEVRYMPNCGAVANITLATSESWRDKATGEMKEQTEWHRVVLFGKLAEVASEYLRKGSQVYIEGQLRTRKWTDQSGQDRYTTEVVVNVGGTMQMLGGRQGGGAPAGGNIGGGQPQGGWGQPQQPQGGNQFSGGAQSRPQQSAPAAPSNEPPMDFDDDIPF

In data set [2] the target is T1, MDCC-SSB. The experiment in a line: MDCC fluorescence spectra; excess ssDNA70; 3 mM MgCl2; 50 mM Tris-HCl pH 7.5, 3 mM MgCl2, 100 mM (or 200 mM) NaCl; MDCC titrations 25 C; EMSA room temperature, 20 min. The following applies: protein: recombinant; tags: pET151 vector, His tag (HisTrap purified); MDCC label (at C26, implied); chain copies: 4; single strand.

B1: ssRNA70 (ssRNA)
RNA: UUAGUUGUUCGUAGUGCUCGUCUGGCUCUGGAUUACCCGCUUAGUUGUUCGUAGUGCUCGUCUGGCUCUG
Regarding B1, the binding signal in data set [1] was 2.1 fold fluorescence increase.

B2: ssDNA70 (dT70) (ssDNA)
DNA: TTTTTTTTTTTTTTTTTTTTTTTTTTTTTTTTTTTTTTTTTTTTTTTTTTTTTTTTTTTTTTTTTTTTTT
For B2, the binding signal in data set [2] is 1.9 fold fluorescence increase.
